This passage reports percent of input virus in flow-through, fraction of input AAV in the flow-through and recovery (percent vector genomes of input) results from patent US20230303983A1.

One experiment addresses AAV1 capsid. In words: AAVX affinity HPLC, five consecutive small-scale preps on the same resin, qPCR of fractions.
The target in experiment [1] is AAV9 capsid. Kind of experiment: AAVX affinity HPLC at room temperature (24 C), qPCR of flow-through. For orientation: In qPCR the cycle at which signal appears reflects the starting amount.
In the next experiment the target is PHP.eB capsid. Described as above.
The target of the next experiment is AAV4 capsid. Kind of experiment: static binding assay on AAVX resin, qPCR of vector genomes.
The target of a further experiment is AAV7m8 capsid. The description is as above.
A further experiment deals with Anc80 capsid. The experiment is described as above.
The next experiment addresses AAV7 capsid. The experiment is described as above.
A further experiment deals with AAV2_HSPG capsid. Described as above.
Experiment [2] deals with AAV9 capsid. The description is as above.
Another experiment has as its target PHP.B capsid. Described as above.
Another experiment deals with AAV6.2 capsid. Described as above.
Another experiment concerns the target rh32.33 capsid. Described as above.
The next experiment concerns the target AAV5 capsid. The experiment is described as above.
The target of the next experiment is AAV8 capsid. The experiment is described as above.
Experiment [3] deals with AAV2 capsid (AAV particles of serotype AAV2) (UniProt P03135). The experiment is described as above.
Sequence of UniProt P03135 (P03135 whole entry): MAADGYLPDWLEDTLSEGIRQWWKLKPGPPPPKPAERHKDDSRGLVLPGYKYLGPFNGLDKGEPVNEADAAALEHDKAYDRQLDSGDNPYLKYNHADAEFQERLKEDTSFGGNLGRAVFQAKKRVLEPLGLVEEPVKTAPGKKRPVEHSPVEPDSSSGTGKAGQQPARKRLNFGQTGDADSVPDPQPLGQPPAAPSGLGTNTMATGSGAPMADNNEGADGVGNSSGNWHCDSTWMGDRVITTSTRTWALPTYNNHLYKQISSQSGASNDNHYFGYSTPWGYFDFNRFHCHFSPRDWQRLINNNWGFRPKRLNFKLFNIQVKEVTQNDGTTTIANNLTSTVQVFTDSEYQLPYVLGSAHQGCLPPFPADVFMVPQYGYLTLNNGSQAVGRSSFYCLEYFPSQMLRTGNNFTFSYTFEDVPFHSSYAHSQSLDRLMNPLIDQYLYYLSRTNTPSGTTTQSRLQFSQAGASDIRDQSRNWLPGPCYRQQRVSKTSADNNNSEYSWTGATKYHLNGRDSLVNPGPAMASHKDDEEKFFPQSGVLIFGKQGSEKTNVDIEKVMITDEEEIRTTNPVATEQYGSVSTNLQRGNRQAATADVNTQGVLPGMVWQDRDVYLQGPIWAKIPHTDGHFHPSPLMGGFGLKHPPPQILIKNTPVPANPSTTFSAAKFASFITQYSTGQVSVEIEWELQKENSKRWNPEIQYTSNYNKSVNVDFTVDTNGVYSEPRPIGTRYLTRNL
The target of a further experiment is rh10 capsid. Described as above.

On to “POROS CaptureSelect AAVX resin ligand (camelid heavy-chain-only single-domain antibody fragment linked to poly[styrene divinylbenzene] beads) (VHH)”, for which, in the experiment with AAV1 capsid, the percent of input virus in flow-through was under 2%. Besides, the fraction of input AAV in the flow-through with AAV9 capsid [1] and with PHP.eB capsid was under 5% each time. In addition, the recovery (percent vector genomes of input) was over 95% with AAV4 capsid; over 95% with AAV7m8 capsid; 80% with Anc80 capsid; over 95% with AAV7 capsid; over 95% with AAV2_HSPG capsid; over 95% in the experiment with AAV9 capsid [2]. Also, the recovery (percent vector genomes of input) (with PHP.B capsid; in the experiment with AAV6.2 capsid; with rh32.33 capsid; with AAV5 capsid; with AAV8 capsid; in experiment [3]) was over 95% throughout. In the experiment with rh10 capsid, this substance showed a recovery (percent vector genomes of input) of over 95%.
